According to the DeepSol protein solubility set:

Experiment: soluble on expression in E. coli; label from the status in PepcDB or PDB records

Row | Sequence | soluble on expression in E. coli
1 | MTFTGLPPEDVPALMTGAVIPHPSVAGRADAYLPSPCIQNHAANLAFLPDGTLSCVWFGGTMEGMRDISIYMSRLPPGSGRWSEPEKMSDDPEKSEQNPLIFNAPDGKTWLLYTSQTSGNQDGSIVKCRISDDGGKTFGPVQILCDSPGTFVRQQIVVNDRGDWLLPIFRCVGLEGQRWSGDADTAAVLISRDGGASWQMRDIPDSIGAVHMNILPLGGCEMIAFYRNRFAETILSSRSADGGETWSPPEPTELPNNNSSIQATVLDNGGIAMVYNHSNATMSDARRQSLYDEIEGDECGENAAVVADAGRKAVWGVPRAPLSLAISRDGGRTFPHRIDLDTGDGFCLSNNSKDSLNREFSYPSVIEGSDGTLHVAYTYYRRAIKYVRLAPRALPLEHHHHHH | soluble
2 | GSHMASMTGGQQMGRGSGSHMASMTGGQQMGRGSRVGEQSQAGDPGLVSAYGPGLEGGTTGVSSEFIVNTLNAGSGALSVTIDGPSKVQLDCRECPEGHVVTYTPMAPGNYLIAIKYGGPQHIVGSPFKAKVTGPRLS | soluble
3 | GGGPFIVVAHSQGSMIAYHVLRQLKKADCDVRLFITIGSPLGIQEAQDVLGKIGSGKPLAVPECVDRWLNVAERLDPVALDSDLGNDYQPNSHGVKIENHAGLMINPEWASNPHSGTGYLSLDIVRQAVRETAGPTFSNPVGRNILMKDLVDNIEDGHREQRHPTLIQLVSDDDDATSLDEVRDRLSNLIKNVL | not soluble
4 | MLINKTKRAEQNLNNLPFLALQAEQIEFLGSSAEFKTQIIELIRNAKKRIYVTALYWQKDEAGQEILDEIYRVKQENPHLDVKVLIDWHRAQRNLLGAEKSATNADWYCEQRQTYQLPDDPNMFFGVPINTREVFGVLHVKGFVFDDTVLYSGASINNVYLHQFEKYRYDRYQKITHAELADSMVNFINDYLLDFSAVYPLDVTNRPRTKEIRGNIRAYRKDLAQNGEYSLKSAVKLPNVLSVSPLFGLGASGNELNQVIEDLFLQVQKKLVICTPYFNFPRTLQHKIATLLENGKRVEIIVGDKVANDFYIPPEQPFKMAGALPYLYESNLRRFCEKFETQIESGQLVVRLWRDGDNTYHLKGVWVDDRYILLTGNNLNPRAWRLDAENGLLIYDPQQQLLAQVEKEQNQIRQHTKVLKHYTELEELNQYPEPVQKLLKKFARIKADKLVKMILAAALEHHHHHH | soluble
5 | MSLEDKDLRSIQEVRNLIESANKAQKELAAMSQQQIDTIVKAIADAGYGAREKLAKMAHEETGFGIWQDKVIKNVFASKHVYNYIKDMKTIGMLKEDNEKKVMEVAVPLGVVAGLIPSTNPTSTVIYKTLISIKAGNSIVFSPHPNALKAILETVRIISEAAEKAGCPKGAISCMTVPTIQGTDQLMKHKDTAVILATGGSAMVKAAYSSGTPAIGVGPGNGPAFIERSANIPRAVKHILDSKTFDNGTICASEQSVVVERVNKEAVIAEFRKQGAHFLSDAEAVQLGKFILRPNGSMNPAIVGKSVQHIANLAGLTVPADARVLIAEETKVGAKIPYSREKLAPILAFYTAETWQEACELSMDILYHEGAGHTLIIHSEDKEIIREFALKKPVSRLLVNTPGALGGIGATTNLVPALTLGCGAVGGSSSSDNIGPENLFNIRRIATGVLELEDIRKEENQATSELPVDADALIQSLVEKVLAELKEGHHHHHH | soluble
6 | MGSDKIHHHHHHMTQQNGKVYLVGAGPGDVAYLTVKAYNLLATAQVLVYDALVDEQLLQCVSPDCLKLDVGKRGGKPSTPQADINHLLVKYCQEGALVVRLKSGDPFIFGRCTSEIEALKAAGCKFEVVPGISSSIAAPLLAGIPLTDPVMSRCFAVLTAHEPEVLDWEALSRLDTLVILMGGKNLADIINELLRRGQSHLTPIAIIRWAGTPSQQIWTGQLGDILEQTRGLSLSPAVIVIGEVVGLRKYLQPEKIFPENSTTPMSSNQPLTGKTILVTRSSGQSSQFSDRLTTLGATVIEMPALEIGSPSSWEELDQAIANLSQFEWLILTSTNGVDYFFERLNLQGKDTRALAGVKIAVVGEKTSQSLKQRGIQADFIPPNFVADSLVEHFPESLLNKKILFPRVESGGREILVKELSAKGAEVIEVAAYQSCCPSSIPPAAELALKNHTIDIITFASSKTVQFFHQLVDNIFPHNIPNTLAGICIASIGPQTSKTCHTLLGRVDVEAEEYTLDGLTQSIINWALKV | not soluble
7 | MDFAVMKQVKNTGLLQSEELCQYILRTSVYPREAGFLKELREANESHPDSYMSTSPLAGQLMSFVLKLVNAKKTIEVGVFTGYSLLLTALSIPDDGKITAIDFDREAYEIGLPFIRKAGVEHKINFIESDAMLALDNLLQGQESEGSYDFGFVDADKPNYIKYHERLMKLVKVGGIVAYDNTLWGGTVAQPESEVPDFMKENREAVIELNKLLAADPRIEIVHLPLGDGITFCRRLY | soluble
